Consider two molecules from article PMC8026773 (Alzheimer's & dementia : the journal of the Alzheimer's …, 2020).

Usually Kd stands for the concentration at which binding is half-saturated. Higher therefore signals lower affinity.

The target in this assay is GST-Aβ42 (monomeric amyloid beta 1-42 as a GST-fusion protein) (UniProt P05067 672-713). Kind of assay: BLI. Background: BLI is a label-free optical method that tracks binding on a fibre tip over time.
Sequence of GST-Aβ42 (monomeric amyloid beta 1-42 as a GST-fusion protein) (P05067 672-713): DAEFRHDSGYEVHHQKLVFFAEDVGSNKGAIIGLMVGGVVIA

B1: human TREM2 Ig domain (aa 19-134), wild type, without BirA tag, in solution (domain or fragment, UniProt Q9NZC2 19-134, looked up)
chain: HNTTVFQGVAGQSLQVSCPYDSMKHWGRRKAWCRQLGEKGPCQRVVSTHNLWLLSFLRRWNGSTAITDDTLGGTLTITLRNLQPHDAGLYQCQSLHGSEADTLRKVLVEVLADPLD
In turn, B1 returned a Kd of 5.1 µM. This lies in the single-digit micromolar range.

B2: human sTREM2 (aa 19-157), wild type, in solution (domain or fragment, UniProt Q9NZC2 19-157, looked up)
chain: HNTTVFQGVAGQSLQVSCPYDSMKHWGRRKAWCRQLGEKGPCQRVVSTHNLWLLSFLRRWNGSTAITDDTLGGTLTITLRNLQPHDAGLYQCQSLHGSEADTLRKVLVEVLADPLDHRDAGDLWFPGESESFEDAHVEH
In the case of B2, the Kd is 3.8 µM.
